Measured values published in patent US20210299212A1, “BINDNG MOLECULES TO TUMOR ASSOCIATED MACROPHAGES AND METHODS OF USE” (Sanford Burnham Prebys Medical Discovery Institute, priority 2018, published 2021).

How the values were obtained:
[1] = target: Bovine serum albumin (Bos taurus, UniProt P02769); assay: Binding of FAM-peptide to control protein immobilized on a plate; details: 1 μM, room temperature, 1 h, fluorescence
Procedure: (§1) To confirm RXRB binds CRV, the binding of FAM-CRV to human recombinant RXRB protein immobilized on a plate was tested. Human RXRB recombinant protein (50 μL, 5 μg/mL) was immobilized in high binding 96-well plate at 4° C. overnight. Bovine serum albumin was used as the control protein. The protein solution was removed and washed one time with PBS. 1% BSA in PBS solution was then added to the wells and incubated at room temperature for 1 h to block the rest available binding sites. After one wash with PBS, RXRB and BSA were incubated with FAM-CRV (100 μL, 1 μM) at room temperature for 1 h. The wells were washed three times with PBS and the fluorescence was measured using a multiplate reader.

[2] = target: T1, human recombinant RXRB protein (Homo sapiens, UniProt P28702); assay: Binding of FAM-peptide to protein immobilized on a plate; details: 1 μM, room temperature, 1 h, fluorescence
T1 sequence (P28702 1-533): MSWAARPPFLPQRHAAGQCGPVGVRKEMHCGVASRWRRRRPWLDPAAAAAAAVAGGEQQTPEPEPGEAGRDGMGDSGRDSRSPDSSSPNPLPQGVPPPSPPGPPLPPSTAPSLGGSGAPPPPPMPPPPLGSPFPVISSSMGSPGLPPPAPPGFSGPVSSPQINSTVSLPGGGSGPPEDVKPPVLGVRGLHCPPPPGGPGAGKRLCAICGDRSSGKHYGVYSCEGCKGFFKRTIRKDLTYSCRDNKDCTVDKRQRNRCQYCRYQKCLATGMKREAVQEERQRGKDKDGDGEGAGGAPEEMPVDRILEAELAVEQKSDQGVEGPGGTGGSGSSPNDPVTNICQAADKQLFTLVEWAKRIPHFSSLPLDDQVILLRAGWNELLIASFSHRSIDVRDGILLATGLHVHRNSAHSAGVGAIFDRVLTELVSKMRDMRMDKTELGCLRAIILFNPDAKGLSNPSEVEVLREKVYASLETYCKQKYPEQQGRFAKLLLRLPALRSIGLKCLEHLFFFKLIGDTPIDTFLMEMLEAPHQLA
Procedure: as §1

[3] = test system: cells isolated from tumors, spleen, liver, and blood from the 4T1 tumor mice; assay: Ex vivo binding to cells isolated from organs of 4T1 mice, flow cytometry; format: cell-based, mouse; details: 4T1 model, 4° C., 1 h
Procedure: Mice with tumor size about 8 mm were euthanized under deep anesthesia (Avertin, lack of response to a toe pinch) by cervical dislocation. Target (tumor) and control (e.g., liver, spleen) tissues were collected and further dissociated to single cells. Tumor cells were dissociated using MACS tumor dissociation kit. Cells were then incubated with fluorescent-labeled CRV or other cell markers (CD11b, CD68, F4/80, FAB, EpCAM, CD31) at 4° C. for 1 h. Positive cells were quantified on BD LSRFORTESSA and data were analyzed using FCS Express Version 3 (De Novo Software).

[4] = test system: 4T1 tumors; assay: Immunofluorescence staining of tissues for FAM-peptide and CD31 at different homing time points; format: in vivo, mouse; details: 4T1 orthotopic tumor-bearing mice, i.v.
Procedure: FAM-CRV was intravenously injected into tumor bearing mice. To this end, 4T1 […] breast cancer cells were cultured in Dulbecco's modified Eagle's medium supplemented with 10% fetal bovine serum, 100 U/mL penicillin and 100 μg/mL streptomycin. The […] cell line was authenticated by the DNA Analysis Core Facility at the Sanford Burnham Prebys Medical Discovery Institute (La Jolla, Calif.) and tested negative for mycoplasma contamination. To produce 4T1 tumors, 1×10^6 tumor cells (suspended in 100 μL of PBS) were orthotopically injected into the mammary fat pad of normal BALB/c mice. All animal experimentation received approval from the Animal Research Committee of Sanford Burnham Prebys Medical Discovery Institute. Biodistribution of fluorescein-conjugated peptides (FAM-CRV, FAM-GGS, or FAM-ARA) was examined after intravenous injection of 100 μL peptide solution (1 mg/mL PBS) into the tail vein of a mouse. […] Tissues were collected, fixed with 4% formaldehyde buffer solution and then soaked in 30% sucrose in PBS overnight. Tissues were finally frozen in OCT embedding medium (Tissue-Tek), and sliced for immunofluorescence staining. Tissue sections were blocked in 1% bovine serum albumin with 0.1% Triton X-100 for 1 h, and incubated with appropriate primary antibodies and second antibodies. […]

Chain of Bovine serum albumin (P02769 25-607): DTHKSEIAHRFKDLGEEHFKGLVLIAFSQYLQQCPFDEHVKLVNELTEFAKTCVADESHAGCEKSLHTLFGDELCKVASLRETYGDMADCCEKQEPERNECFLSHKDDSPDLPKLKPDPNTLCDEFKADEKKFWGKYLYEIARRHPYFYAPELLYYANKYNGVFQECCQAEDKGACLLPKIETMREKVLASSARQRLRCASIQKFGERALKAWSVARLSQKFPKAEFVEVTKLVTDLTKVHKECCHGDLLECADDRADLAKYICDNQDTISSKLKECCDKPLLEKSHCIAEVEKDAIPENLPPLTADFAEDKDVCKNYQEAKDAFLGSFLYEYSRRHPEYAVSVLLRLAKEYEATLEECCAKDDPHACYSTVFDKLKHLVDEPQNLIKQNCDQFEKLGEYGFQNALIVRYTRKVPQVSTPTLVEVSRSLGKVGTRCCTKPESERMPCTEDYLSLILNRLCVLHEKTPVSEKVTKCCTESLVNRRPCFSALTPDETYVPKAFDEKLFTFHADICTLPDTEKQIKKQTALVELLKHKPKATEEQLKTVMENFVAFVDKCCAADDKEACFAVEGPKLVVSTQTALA

Row | Sequence | binding to control protein BSA [1] | binding to immobilized RXRB compared to control peptide FAM-GGS [2] | specific labelling of macrophages in the tumor (ex vivo) [3] | fluorescence signal in the tumors at homing time points 5, 15, and 60 min [4]
1 | CRVLRSGSC [cyclic macrophage-targeting peptide] | neither peptide bound | significantly higher binding |  | 
2 | GGSGGSKG [FAM-GGS, FAM-labeled control peptide] | neither peptide bound |  | could not specifically label macrophages | no fluorescence signals
